For this data set, the system named is Escherichia coli TOP10. As to the kind of experiment: shrunken log2 fold change of peptide-encoding DNA abundance (4.5 h post-induction vs induction); higher = less antimicrobial activity (less host growth inhibition). The settings on record: time post-induction: 4.5 h; library: site-saturation at positions 5, 18, 19, 20.

We go through 91 sequences from the supplement of paper PMC9112550, “Optimization of the antimicrobial peptide Bac7 by deep mutational scanning” (BMC Biology, 2022).
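Note: peptides expressed intracellularly from a pBAD plasmid library in pooled LB shake-flask culture, induced with 0.3% L-arabinose, DNA abundance read by NGS, three biological replicates, DESeq2 with apeglm shrinkage.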

For the sequence RRIRNRPPRLPRPRPRPAQSPRP, the “shrunken log2 fold change” value turned out to be 0.0508.
The same measure for RRIRMRPPRLPRPRPRPQRYPRP: -0.00185; for RRIRPRPPRLPRPRPRPEAHPRP: 0.0215.
On to RRIRRRPPRLPRPRPRPDHHPRP, for which the “shrunken log2 fold change” value was -0.254.
In the case of RRIRFRPPRLPRPRPRPYRMPRP, the “shrunken log2 fold change” value is -0.571.
Under RRIRNRPPRLPRPRPRPLMGPRP stands -0.254; under RRIRFRPPRLPRPRPRPCMQPRP, -0.163; under RRIRWRPPRLPRPRPRPNFGPRP, 0.174.
As for RRIRVRPPRLPRPRPRPMLCPRP, the “shrunken log2 fold change” value worked out at 0.121.
The same measure for RRIRTRPPRLPRPRPRPSFGPRP: 0.129; for RRIRRRPPRLPRPRPRPWNFPRP: -0.0355; for RRIRKRPPRLPRPRPRPCHKPRP: 0.0108.
Turning to RRIRDRPPRLPRPRPRPENTPRP, the “shrunken log2 fold change” value was found to be 0.17.
In the case of RRIRARPPRLPRPRPRPVPVPRP, the “shrunken log2 fold change” value worked out at 0.423.
As for RRIRCRPPRLPRPRPRPQMQPRP, the “shrunken log2 fold change” value was -0.347.
Under RRIRVRPPRLPRPRPRPLMHPRP stands -0.249.
With RRIRTRPPRLPRPRPRPQFGPRP, the “shrunken log2 fold change” value was -0.00643.
Under RRIRQRPPRLPRPRPRPAEPPRP stands 0.157.
The same measure for RRIRSRPPRLPRPRPRPWHCPRP: -0.403; for RRIRQRPPRLPRPRPRPQKPPRP: 0.0718; for RRIRARPPRLPRPRPRPRYTPRP: -0.0676.
With RRIRVRPPRLPRPRPRPSIWPRP, the “shrunken log2 fold change” value was -0.205.
Regarding RRIRWRPPRLPRPRPRPECVPRP, the “shrunken log2 fold change” value was 1.26.
The same measure for RRIRIRPPRLPRPRPRPFTVPRP: -0.214.
Consider RRIRMRPPRLPRPRPRPMAAPRP, for which the “shrunken log2 fold change” value amounted to 0.117.
For RRIRMRPPRLPRPRPRPYWGPRP, the “shrunken log2 fold change” value is -0.0296.
Under RRIRPRPPRLPRPRPRPYKFPRP stands -0.178.
On to RRIRYRPPRLPRPRPRPFEVPRP, for which the “shrunken log2 fold change” value is -0.0115.
Regarding RRIRERPPRLPRPRPRPLLDPRP, the “shrunken log2 fold change” value was -0.0911.
Regarding RRIRLRPPRLPRPRPRPFNWPRP, the “shrunken log2 fold change” value was -0.223.
Under RRIRQRPPRLPRPRPRPRQIPRP stands 0.0413; under RRIRYRPPRLPRPRPRPWKIPRP, -0.245.
Under RRIRHRPPRLPRPRPRPTDTPRP stands -0.116.
Under RRIRLRPPRLPRPRPRPGPLPRP stands 0.287.
Consider RRIRNRPPRLPRPRPRPPMIPRP, for which the “shrunken log2 fold change” value came to 0.102.
For the sequence RRIRFRPPRLPRPRPRPRNSPRP, the “shrunken log2 fold change” value was 0.168.
As for RRIRARPPRLPRPRPRPYSKPRP, the “shrunken log2 fold change” value was -0.91.
The same measure for RRIRVRPPRLPRPRPRPCMIPRP: -0.792; for RRIRVRPPRLPRPRPRPASSPRP: -0.122; for RRIRFRPPRLPRPRPRPPVDPRP: 0.41.
Consider RRIRCRPPRLPRPRPRPPCGPRP, for which the “shrunken log2 fold change” value was found to be 0.142.
Under RRIRFRPPRLPRPRPRPFISPRP stands -0.691; under RRIRNRPPRLPRPRPRPMRIPRP, 0.134.
Under RRIRFRPPRLPRPRPRPNRQPRP stands -0.564; under RRIRARPPRLPRPRPRPLMHPRP, 0.446.
For the sequence RRIRFRPPRLPRPRPRPDWRPRP, the “shrunken log2 fold change” value worked out at 0.0737.
Turning to RRIRNRPPRLPRPRPRPGPCPRP, the “shrunken log2 fold change” value is -0.0814.
Under RRIRERPPRLPRPRPRPGEFPRP stands 0.033.
The same measure for RRIRSRPPRLPRPRPRPTFSPRP: 0.019.
As for RRIRGRPPRLPRPRPRPKRLPRP, the “shrunken log2 fold change” value turned out to be 0.217.
The same measure for RRIRCRPPRLPRPRPRPQTRPRP: 0.471.
With RRIRFRPPRLPRPRPRPCQHPRP, the “shrunken log2 fold change” value is -0.397.
With RRIRWRPPRLPRPRPRPNLNPRP, the “shrunken log2 fold change” value was -0.401.
RRIRNRPPRLPRPRPRPNNNPRP: the “shrunken log2 fold change” value was -0.867.
On to RRIRTRPPRLPRPRPRPVAHPRP, for which the “shrunken log2 fold change” value was -0.0854.
Take RRIRQRPPRLPRPRPRPATHPRP: the “shrunken log2 fold change” value was -0.28.
Under RRIRERPPRLPRPRPRPHMIPRP stands 0.0284.
Regarding RRIRRRPPRLPRPRPRPNEHPRP, the “shrunken log2 fold change” value is -0.118.
With RRIRMRPPRLPRPRPRPYKIPRP, the “shrunken log2 fold change” value is -0.544.
The same measure for RRIRHRPPRLPRPRPRPCQHPRP: -0.214.
The same measure for RRIRGRPPRLPRPRPRPSLNPRP: 0.105.
In the case of RRIRNRPPRLPRPRPRPPQVPRP, the “shrunken log2 fold change” value was 0.0214.
Take RRIRNRPPRLPRPRPRPTHTPRP: the “shrunken log2 fold change” value is -0.191.
Under RRIRWRPPRLPRPRPRPNLEPRP stands 0.322.
Turning to RRIRNRPPRLPRPRPRPNSNPRP, the “shrunken log2 fold change” value is -0.744.
The same measure for RRIRTRPPRLPRPRPRPPSGPRP: 0.467; for RRIRTRPPRLPRPRPRPTNYPRP: -0.857.
Under RRIRLRPPRLPRPRPRPCVCPRP stands -0.00623.
In the case of RRIRCRPPRLPRPRPRPGIGPRP, the “shrunken log2 fold change” value was 0.295.
As to RRIRDRPPRLPRPRPRPCGAPRP, the “shrunken log2 fold change” value stood at 0.838.
Regarding RRIRQRPPRLPRPRPRPGGSPRP, the “shrunken log2 fold change” value is -0.141.
On to RRIRMRPPRLPRPRPRPPGLPRP, for which the “shrunken log2 fold change” value came out at 0.702.
Under RRIRNRPPRLPRPRPRPGEGPRP stands 0.196; under RRIRARPPRLPRPRPRPWPSPRP, -0.0645.
Consider RRIRTRPPRLPRPRPRPFHTPRP, for which the “shrunken log2 fold change” value is -0.932.
For RRIRYRPPRLPRPRPRPQFRPRP, the “shrunken log2 fold change” value was -0.18.
The same measure for RRIRIRPPRLPRPRPRPDAYPRP: -0.0729; for RRIRVRPPRLPRPRPRPGGNPRP: -0.0392.
Under RRIRNRPPRLPRPRPRPCWMPRP stands -0.18; under RRIRWRPPRLPRPRPRPWCPPRP, 0.0505; under RRIRFRPPRLPRPRPRPMWQPRP, -0.00366.
The same measure for RRIRVRPPRLPRPRPRPCLTPRP: -0.0353.
Turning to RRIRYRPPRLPRPRPRPIGFPRP, the “shrunken log2 fold change” value is 0.0062.
The same measure for RRIRKRPPRLPRPRPRPTHPPRP: 0.932.
Under RRIRRRPPRLPRPRPRPKSLPRP stands 0.0308; under RRIRYRPPRLPRPRPRPIYPPRP, -0.559; under RRIRTRPPRLPRPRPRPNQKPRP, -0.306.
Under RRIRTRPPRLPRPRPRPTNLPRP stands -0.0724.
On to RRIRHRPPRLPRPRPRPPLGPRP, for which the “shrunken log2 fold change” value was 0.25.
Under RRIRFRPPRLPRPRPRPWKMPRP stands -0.211.
As for RRIRNRPPRLPRPRPRPDANPRP, the “shrunken log2 fold change” value was -0.318.
